In patent publication US20110262448A1 (Bristol-Myers Squibb, published 2011):
Where a chain is given by its changes, count along the chain named.

Tests used:
[1] = molecular target: T1, cell-surface human mesothelin (naturally expressed on OVCAR3, NCI-H226, CFPAC-1 and KB cells and on human … (human, UniProt Q13421 296-598)); test: flow cytometry on KB cells
T1 construct: whole, on cells; Endogenously expressed on the cell lines; also called cell surface mesothelin
Description: (§1) To test the ability of the antibodies to bind to cell surface mesothelin protein, the antibodies were incubated with four different mesothelin-expressing cells: OVCAR3 (ATCC Designation HTB-161, a human ovarian cancer cell line), NCI-H226 (ATCC Designation CRL-5826, a human lung-derived mesothelioma), CFPAC-1 (ATCC Designation CRL-1918, a human pancreatic cancer cell line), and KB (ATCC Designation CCL-17, a human oral carcinoma cell line). For the flow cytometry studies, the 3C10, 6A4 and 7B1 monoclonal antibodies were diluted with cold 1×PBS+0.1% BSA to 40 μg/mL. For the binding reaction, 50 μl of diluted antibody solution was added to a 50 μl cell suspension containing 4×10⁵ cells and the mixture was incubated on ice for 30-60 minutes. The cells were then washed three times with 1×PBS+0.1% BSA. A 1:50 dilution of R-phycoerythrin-labeled goat anti-human IgG Fγ F(ab)₂ fragment (Jackson ImmunoResearch Labs, Cat. #109-116-098) was added and the mixture was incubated on ice for 1 hour, followed by washing twice with cold 1×PBS+0.1% BSA. After the final wash, 200 μl of cold 1×PBS+0.1% BSA was added to each solution and analysis of antibody binding was carried out by FACS.

[2] = molecular target: T1, cell-surface human mesothelin …; test: flow cytometry on OVCAR3 cells
Description: as §1

[3] = molecular target: T1, cell-surface human mesothelin …; test: flow cytometry on CFPAC-1 cells
Description: as §1

[4] = molecular target: T1, cell-surface human mesothelin …; test: flow cytometry on NCI-H226 cells
Description: as §1

[5] = molecular target: T2, hu mesothelin-his fusion protein (human, UniProt Q13421 296-598, limits assumed); test: BIAcore SPR, antibody captured on protein G chip, mesothelin His-fusion protein injected
T2 construct: domain: 40 kD portion of mesothelin; Soluble fusion protein secreted by transfected CHO cells; also called recombinant soluble mesothelin his-fusion protein; recombinant human mesothelin His-fusion protein; not shown: His tag at the C-terminus
T2 sequence (Q13421 other isoform, or with tags, fused parts or gaps limits assumed): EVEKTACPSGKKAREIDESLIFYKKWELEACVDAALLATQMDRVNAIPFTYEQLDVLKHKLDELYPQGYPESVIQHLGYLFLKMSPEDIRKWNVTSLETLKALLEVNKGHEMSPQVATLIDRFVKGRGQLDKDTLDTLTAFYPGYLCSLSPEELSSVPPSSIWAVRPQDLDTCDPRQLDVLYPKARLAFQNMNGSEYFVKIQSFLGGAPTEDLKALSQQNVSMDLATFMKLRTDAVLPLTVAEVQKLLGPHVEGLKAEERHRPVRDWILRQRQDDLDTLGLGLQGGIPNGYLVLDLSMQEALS
Description: The binding of the 3C10, 6A4 and 7B1 antibodies to recombinant soluble mesothelin his-fusion protein was examined by BIAcore™ using a capture method. The 3C10, 6A4 and 7B1 antibodies each were separately captured on a protein G (Pierce, Rockford, Ill.) coated CM5 chip at high density (4000 RUs). The coating was performed based on the standard immobilization procedure recommended by the manufacturer. After the 3C10, 6A4 or 7B1 purified antibody was captured on protein G, a concentration series of recombinant human mesothelin His-fusion protein (450, 225, 112.5, 56, and 28 nM) was injected over the captured antibody for 2 minutes at a flow rate of […]. The antigen was allowed to dissociate for 8 minutes. Isotype controls were run on the chip, and the data used to subtract non-specific binding. All the analyses were carried out on a Biacore 2000 or 3000 surface plasmon resonance instrument, using BIAcore Control software v 4.01. Data was analyzed using BiaEvaluation v4.01 software.

[6] = molecular target: mesothelin on CHO-mesothelin cells (CHO cells transfected to express the 40 kD membrane-associated portion of … (UniProt Q13421 296-598, limits assumed)); test: cell-based or functional assay
Sequence of mesothelin on CHO-mesothelin cells (CHO cells transfected to express the 40 kD membrane-associated portion of … (Q13421 other isoform, or with tags, fused parts or gaps limits assumed): as above

T1 sequence (Q13421 other isoform, or with tags, fused parts or gaps limits assumed): as above

B1: human monoclonal antibody 3C10 (antibody, IgG1, V domains shown)
VH: QVYLVESGGGVVQPGRSLRLSCAASGITFSIYGMHWVRQAPGKGLEWVAVIWYDGSHEYYADSVKGRFTISRDNSKNTLYLLMNSLRAEDTAVYYCARDGDYYDSGSPLDYWGQGTLVTVSS
VL: EIVLTQSPATLSLSPGERATLSCRASQSVSSYLAWYQQKPGQAPRLLIYDASNRATGIPARFSGSGSGTDFTLTISSLEPEDFAVYYCQQRSNWPLTFGGGTKVEIK
notes: hybridoma-derived purified antibody; also called 3C10 mAb; 1382.210.3C10.1.6
B1 showed an EC50 [1] of 0.144 nM, an EC50 [2] of 0.213 nM and an EC50 [3] of 0.193 nM. It also gave an EC50 [4] of 0.197 nM, a Kd [5] of 5.8 nM and a koff [5] of 0.000362 s⁻¹. It also gave a kon [5] of 63000 M⁻¹ s⁻¹.

B2: human monoclonal antibody 6A4 (antibody, IgG1, V domains shown)
VH: B1 VH with Y3H, A23V, S30R, I51L, L82Q, V93I
VL: B1 VL
notes: also called 6A4 mAb; 1382.210.6A4.1.6
For B2, the “Antibody Dependent Cellular Cytotoxicity, EC50 (nM), CHO-mesothelin target cells” value [6] was 63.1 nM, the EC50 [1] was 0.181 nM and the EC50 [2] was 0.17 nM. For the same binder, the EC50 [3] was 0.193 nM, the EC50 [4] was 0.156 nM and the Kd [5] was 5.9 nM. For the same binder, the koff [5] was 0.000377 s⁻¹ and the kon [5] was 63900 M⁻¹ s⁻¹.

B3: human monoclonal antibody 7B1 (antibody, V domains shown)
VH: EVHLVESGGGLVQPGGSLRLSCAASGFTFSRYWMSWVRQAQGKGLEWVASIKQAGSEKTYVDSVKGRFTISRDNAKNSLSLQMNSLRAEDTAVYYCAREGAYYYDSASYYPYYYYYSMDVWGQGTTVTVSS
VL: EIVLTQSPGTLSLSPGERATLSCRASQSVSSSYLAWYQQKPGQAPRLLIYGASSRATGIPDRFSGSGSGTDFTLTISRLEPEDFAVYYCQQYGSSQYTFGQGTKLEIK
notes: also called 7B1 mAb; 1382.210.7B1.2.18
B3 gave an EC50 [1] of 0.0679 nM, an EC50 [2] of 0.11 nM and an EC50 [3] of 0.0643 nM. It also gave an EC50 [4] of 0.664 nM, a Kd [5] of 2.4 nM and a koff [5] of 0.000171 s⁻¹. The kon [5] was 71500 M⁻¹ s⁻¹.
